Laboratory results as given in US20220160939A1, “SELF-ASSEMBLING PEPTIDES AS BRONCHIAL OBSTRUCTION AGENTS” (3-D MATRIX, LTD., priority 2014, published 2022).

Columns and labels:
[1] = Rheological properties of 1% peptides before and after DMEM treatment for 2 minutes; format: physicochemical; settings: peptides 1%; DMEM 2 minutes; compared with weaker peptide solutions (i.e., PuraMatrix)
Method: The effects of Dulbecco's modified Eagle's medium (DMEM) (pH 7.4) on the rheological properties of IEIK13 (SEQ ID NO:2), KLD12 (SEQ ID NO:3), and PuraMatrix® (SEQ ID NO:1) were evaluated on a rheometer (AR500, TA Instruments) with 40 mm plates. DMEM is generally a cell culture medium that contains 6.4 g/L of NaCl, 3.4 g/L NaHCO3 (sodium bicarbonate), minor amounts of other salts, various amino acids, and 4.5 g/L of glucose. The pH level of DMEM is generally 7.2±0.2 and the osmolality is 335±30 mOsm/Kg H2O; both measurements are close to human physiological fluids such as blood.
Peptide solutions (1%) were kept at 4° C. for at least 48 hours before testing. To perform the experiment, 1 mL of peptide solution was gently pipetted and placed on the plate of the rheometer. 2 mL of DMEM solution was gently added around the peptide solution. The peptide solution was treated with DMEM for two minutes, then the media was removed, and the plates were placed at a measuring geometry gap at around 450 μm. Measurements were performed at 37° C. after 2 min of relaxation time. Frequency tests were performed from 1 rad/s to 100 rad/s at 1 Pa of oscillation stress.
The rheological properties of the peptides (1%) were compared before and after DMEM treatment for 2 minutes, as shown in FIG. 1A. […]

Swine lungs = assay: Lung volume reduction: injection of peptide hydrogel into bronchi of excised lungs; settings: for filling of lumens of the lungs (histology): hydrogel with 0.00585% Indigo Carmine
Source text: Swine lungs were obtained from freshly euthanized pigs. An endotracheal tube, connected to a syringe filled with a peptide hydrogel, was inserted through the trachea and primary bronchus into the lobe of interest. The tube was led through the bronchi to the end of the appropriate lobe and the distance was noted.
The self-assembling peptide hydrogels were comprised of Ac-RADARADARADARADA-NH2 (SEQ ID NO: 1) (i.e., RADA16) or Ac-IEIKIEIKIEIKI-NH2 (SEQ ID NO: 2) (i.e., IEIK13). RADA16 (SEQ ID NO:1) or IEIK13 (SEQ ID NO:2) was mixed with 0.00585% Indigo Carmine to observe spreading of the hydrogels throughout the lobes. When mixed, the peptides were reconstituted with […]. The peptides were reconstituted first in deionized water, and subsequently with 1% Indigo Carmine to provide a final concentration of 0.00585% of the contrast reagent.
Once the lobe of interest was identified, the endotracheal tube was fed to the end where the hydrogels were injected. After each injection of 1 ml of hydrogel the tube was retracted 2 cm and the injection was repeated. This procedure was repeated until a backflow of hydrogel was observed from the bronchi and the total volume of hydrogel injected was noted. The final injection ranged from 0.5-1.5 ml. After backflow of hydrogel was observed, the lobes were cut at 90 degrees to the midline for histological analysis. FIG. 25 illustrates the procedural flow of injecting peptide hydrogel into the bronchi of a single lobe of the lung and observation of penetration of the solution. Lumen penetration of 1% Indigo Carmine solution (left) was compared to 1.5% IEIK13 (SEQ ID NO:2)+0.00585% Indigo Carmine (right).
Tissue samples were fixed in paraformaldehyde and rinsed with ethanol. Histology was conducted at Beth Israel Deaconess Medical Center. […] FIG. 28A presents the IEIK13 (SEQ ID NO:2) gel observed within the major lumens. FIG. 28B presents the IEIK13 ((SEQ ID NO:2) gel observed within the minor lumens. Due to H&E processing, peptide gels break/fragment. Optical imaging has shown that these gels remain as bulk structures.

[2] = Gelation kinetics of pH adjusted peptides, time sweep test with DMEM; format: physicochemical
Method: The effect of pH level on the properties of gelation kinetics was evaluated to identify optimized pH levels for the peptides as described herein. Fast gelation kinetics of PuraMatrix® and other peptides within body fluid may generally improve its function and response time for various clinical applications. The pH level may impart response time to begin gelation when treated with simulated body fluid including but not limited to DMEM. […] A fast response time of PuraMatrix® (SEQ ID NO:1) and other peptides within body fluid may generally improve its function and response time for various clinical applications.
(§1) Time sweep tests were performed at 1 rad/sec and at 1 Pa with 20 mm plates and 500 μm gap distance. During time sweep test of PuraMatrix® (SEQ ID NO:1) 2.5% solution, DMEM was added into the chamber surrounding the measuring plates to soak PuraMatrix® (SEQ ID NO:1) solution at 0 time point. The results are shown in FIG. 9A for PuraMatrix® (SEQ ID NO:1) 2.5% solution.
as §1, with “IEIK13” for “PuraMatrix®”, “NO:2) 1.5%” for “NO:1) 2.5%”, “NO:2) 1.5%” for “NO:1)”, “point and continuously data was recorded.” for “point.”, “9B” for “9A”

[3] = Gelation kinetics of 0.5% RADA16 treated with cations and anions; format: physicochemical
Method: Rheological measurements of gelation kinetics of 0.5% RADA16 (SEQ ID NO:1)+NaCl, KCl, and CaCl2) were evaluated. A solution of 0.5% RADA16 (SEQ ID NO:1) was prepared and gelation kinetics were observed by treatment with several cations (e.g., Nat, Ca^2+, K^+) and anions (e.g., Cl^−, CO3^2−, PO4^3−, SO4^2−). It was determined how long it will take for the peptide mixtures to gel and how to control that gelation time by varying the cation/anion type and concentration. […] In vivo and in vitro qualitative experiments and the resulting observations were supportive of these conclusions.

[4] = with pH adjustment, PuraMatrix 2.5%, IEIK13 1.5% solution

Substance | fold increase of storage modulus after DMEM treatment [1] | filling of lumens of the lungs (histology) (Swine lungs) | gelation response to DMEM [2, 4] | gelation response to DMEM ([2]; without pH adjustment, 1.5% solution) | gelation speed by anion ([3]; chloride) | gelation speed by anion ([3]; sulfate) | lung volume reduction, penetration into lung tissue, versus 1.5% IEIK13 (Swine lungs; 1.0% with 0.00585% Indigo Carmine)
Ile-Glu-Ile-Lys-Ile-Glu-Ile-Lys-Ile-Glu-Ile-Lys-Ile [IEIK13] | lower-fold increase | filled both major and minor lumens | immediate storage modulus increase | immediate storage modulus increase | – | – | –
Arg-Ala-Asp-Ala-Arg-Ala-Asp-Ala-Arg-Ala-Asp-Ala-Arg-Ala-Asp-Ala [PuraMatrix ®] | – | filled both major and minor lumens | immediate storage modulus increase | – | quickest gelation | slowest gelation | decidedly better
